Measurements as given in patent US20040214275.

Key:
[1] = biological target: von Willebrand factor purified from human plasma cryoprecipitate (UniProt P04275)
[2] = biological target: von Willebrand factor purified from human plasma cryoprecipitate, P04275

| Molecule | vWF-cleaving activity (qualitative) [1] | vWF-cleaving activity [2] |
| --- | --- | --- |
| W897stop variant of the vWF-cleaving protease (lacking the region between the C-terminus and position W897) | a variant lacking a region between the C-terminus and the position W897 was found to have activity, although it was the result of qualitative analysis | – |
| vWF-cleaving protease derived from human plasma (protein) AAGGILHLELLVAVGPDVFQAHQEDTERYVLTNLNIGAELLRDPSLGAQFRVHLVKMVILTEPEGAPNITANLTSSLLSVCGWSQTINPEDDTDPGHADLVLYITRFDLELPDGNRQVRGVTQLGGACSPTWSCLITEDTGFDLGVTIAHEIGHSFGLEHDGAPGSGCGPSGHVMASDGAAPRAGLAWSPCSRRQLLSLLSAGRARCVWDPPRPQPGSAGHPPDAQPGLYYSANEQCRVAFGPKAVACTFAREHLDMCQALSCHTDPLDQSSCSRLLVPLLDGTECGVEKWCSKGRCRSLVELTPIAAVHGRWSSWGPRSPCSRSCGGGVVTRRRQCNNPRPAFGGRACVGADLQAEMCNTQACEKTQLEFMSQQCARTDGQPLRSSPGGASFYHWGAAVPHSQGDALCRHMCRAIGESFIMKRGDSFLDGTRCMPSGPREDGTLSLCVSGSCRTFGCDGRMDSQQVWDRCQVCGGDNSTCSPRKGSFTAGRAREYVTFLTVTPNLTSVYIANHRPLFTHLAVRIGGRYVVAGKMSISPNTTYPSLLEDGRVEYRVALTEDRLPRLEEIRIWGPLQEDADIQVYRRYGEEYGNLTRPDITFTYFQPKPRQAWVWAAVRGPCSVSCGAGLRWVNYSCLDQARKELVETVQCQGSQQPPAWPEACVLEPCPPYWAVGDFGPCSASCGGGLRERPVRCVEAQGSLLKTLPPARCRAGAQQPAVALETCNPQPCPARWEVSEPSSCTSAGGAGLALENETCVPGADGLEAPVTEGPGSVDEKLPAPEPCVGMSCPPGWGHLDATSAGEKAPSPWGSIRTGAQAAHVWTPAAGSCSVSCGRGLMELRFLCMDSALRVPVQEELCGLASKPGSRREVCQAVPCPARWQYKLAACSVSCGRGVVRRILYCARAHGEDDGEEILLDTQCQGLPRPEPQEACSLEPCPPRWKVMSLGPCSASCGLGTARRSVACVQLDQGQDVEVDEAACAALVRPEASVPCLIADCTYRWHVGTWMECSVSCGDGIQRRRDTCLGPQAQAPVPADFCQHLPKPVTVRGCWAGPCVGQGTPSLVPHEEAAAPGRTTATPAGASLEWSQARGLLFSPAPQPRRLLPGPQENSVQSSACGRQHLEPTGTIDMRGPGQADCAVAIGRPLGEVVTLRVLESSLNCSAGDMLLLWGRLTWRKMCRKLLDMTFSSKTNTLVVRQRCGRPGGGVLLRYGSQLAPETFYRECDMQLFGPWGEIVSPSLSPATSNAGGCRLFINVAPHARIAIHALATNMGAGTEGANASYILIRDTHSLRTTAFHGQQVLYWESESSQAEMEFSEGFLKAQASLRGQYWTLQSWVPEMQDPQSWKGKEGT | – | activity derived from the cryoprecipitate and the FI paste were found to cleave the peptide bond between residues Tyr 842 and Met 843 |
